Reference: paper PMC9482650, “Quantitative fragmentomics allow affinity mapping of interactomes” (Nature Communications, 2022)

These binders were tested against T1, APBA2_1, Q99767 (assay: holdup assay). Settings: plain residues with an end cap or a label only (N-terminal biotin on a linker: ado-ado).
T1 sequence (Q99767 563-664, limits assumed, looked up): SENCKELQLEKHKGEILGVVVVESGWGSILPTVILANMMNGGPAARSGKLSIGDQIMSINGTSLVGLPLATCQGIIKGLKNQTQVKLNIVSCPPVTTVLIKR
Design: key: below the threshold = too weak to quantify, mostly under pKd 3.1 to 4

Binder | pKd
NIAESLESLV [PTPRZ1, P23471] | below the threshold
LESTTVGTSV [KARS1, Q15046] | below the threshold

Each binder was assayed against T2, APBA3_1, O96018 (assay: holdup assay). Settings: plain residues with an end cap or a label only (N-terminal biotin on a linker: ado-ado).
T2 sequence (O96018 389-490, limits assumed, looked up): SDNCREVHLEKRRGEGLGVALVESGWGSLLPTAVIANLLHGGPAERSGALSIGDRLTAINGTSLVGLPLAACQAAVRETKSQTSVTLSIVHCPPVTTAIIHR
Design: key: below the threshold = too weak to quantify, mostly under pKd 3.1 to 4

Binder | pKd
NIAESLESLV [PTPRZ1, P23471] | below the threshold
LESTTVGTSV [KARS1, Q15046] | below the threshold

These binders were tested against T3, DFNB31_2, Q9P202 (assay: holdup assay). Settings: plain residues with an end cap or a label only (N-terminal biotin on a linker: ado-ado).
T3 sequence (Q9P202 274-371, limits assumed, looked up): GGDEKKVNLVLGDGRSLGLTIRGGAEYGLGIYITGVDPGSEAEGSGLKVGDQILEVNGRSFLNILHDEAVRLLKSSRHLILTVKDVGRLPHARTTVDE
Design: key: below the threshold = too weak to quantify, mostly under pKd 3.1 to 4

Binder | pKd
NIAESLESLV [PTPRZ1, P23471] | below the threshold
LESTTVGTSV [KARS1, Q15046] | below the threshold

What follows are binders tested against T4, DFNB31_3, Q9P202 (assay: holdup assay). Settings: plain residues with an end cap or a label only (N-terminal biotin on a linker: ado-ado).
T4 sequence (Q9P202 811-907, limits assumed, looked up): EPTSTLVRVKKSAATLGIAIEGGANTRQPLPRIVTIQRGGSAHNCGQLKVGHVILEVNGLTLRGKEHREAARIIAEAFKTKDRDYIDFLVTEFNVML
Design: key: below the threshold = too weak to quantify, mostly under pKd 3.1 to 4

Binder | pKd
NIAESLESLV [PTPRZ1, P23471] | below the threshold
LESTTVGTSV [KARS1, Q15046] | below the threshold

The binders below were run against T5, DLG3_2, Q92796 (assay: holdup assay). Settings: plain residues with an end cap or a label only (N-terminal biotin on a linker: ado-ado).
T5 sequence (Q92796 221-321, limits assumed, looked up): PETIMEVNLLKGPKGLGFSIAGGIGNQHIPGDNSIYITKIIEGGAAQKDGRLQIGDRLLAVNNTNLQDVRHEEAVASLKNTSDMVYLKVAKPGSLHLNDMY
Design: key: below the threshold = too weak to quantify, mostly under pKd 3.1 to 4

Binder | pKd
NIAESLESLV [PTPRZ1, P23471] | 4.81
LESTTVGTSV [KARS1, Q15046] | 4.51

These binders were tested against T6, DLG3_3, Q92796 (assay: holdup assay). Settings: plain residues with an end cap or a label only (N-terminal biotin on a linker: ado-ado).
T6 sequence (Q92796 374-475, limits assumed, looked up): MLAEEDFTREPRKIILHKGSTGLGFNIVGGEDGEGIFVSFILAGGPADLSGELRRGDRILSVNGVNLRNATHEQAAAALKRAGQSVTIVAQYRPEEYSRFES
Design: key: below the threshold = too weak to quantify, mostly under pKd 3.1 to 4

Binder | pKd
NIAESLESLV [PTPRZ1, P23471] | below the threshold
LESTTVGTSV [KARS1, Q15046] | 3.6

What follows are binders tested against DLG4_3, P78352 (assay: holdup assay). Settings: plain residues with an end cap or a label only (N-terminal biotin on a linker: ado-ado).
Design: key: below the threshold = too weak to quantify, mostly under pKd 3.1 to 4

Chain of DLG4_3, P78352 (P78352 306-403): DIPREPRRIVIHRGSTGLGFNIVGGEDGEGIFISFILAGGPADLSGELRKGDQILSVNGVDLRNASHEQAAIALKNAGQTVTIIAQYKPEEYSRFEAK

Binder | pKd
NIAESLESLV [PTPRZ1, P23471] | below the threshold
LESTTVGTSV [KARS1, Q15046] | 3.58

What follows are binders tested against GRASP, Q7Z6J2 (assay: holdup assay). Settings: plain residues with an end cap or a label only (N-terminal biotin on a linker: ado-ado).
Design: key: below the threshold = too weak to quantify, mostly under pKd 3.1 to 4

Chain of GRASP, Q7Z6J2 (Q7Z6J2 96-193): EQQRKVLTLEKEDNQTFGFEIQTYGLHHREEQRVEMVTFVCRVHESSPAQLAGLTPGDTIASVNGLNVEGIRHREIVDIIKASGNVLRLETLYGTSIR

Binder | pKd
NIAESLESLV [PTPRZ1, P23471] | 3.74
LESTTVGTSV [KARS1, Q15046] | 3.95

The binders below were run against GRIP2_5, Q9C0E4 (assay: holdup assay). Settings: plain residues with an end cap or a label only (N-terminal biotin on a linker: ado-ado).
Design: key: below the threshold = too weak to quantify, mostly under pKd 3.1 to 4

Chain of GRIP2_5, Q9C0E4 (Q9C0E4 544-642): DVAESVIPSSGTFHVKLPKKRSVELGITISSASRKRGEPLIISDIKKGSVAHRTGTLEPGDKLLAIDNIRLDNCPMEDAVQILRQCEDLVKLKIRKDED

Binder | pKd
NIAESLESLV [PTPRZ1, P23471] | below the threshold
LESTTVGTSV [KARS1, Q15046] | below the threshold

These binders were tested against HTRA1, Q92743 (assay: holdup assay). Settings: plain residues with an end cap or a label only (N-terminal biotin on a linker: ado-ado).
Design: key: below the threshold = too weak to quantify, mostly under pKd 3.1 to 4

Chain of HTRA1, Q92743 (Q92743 360-477): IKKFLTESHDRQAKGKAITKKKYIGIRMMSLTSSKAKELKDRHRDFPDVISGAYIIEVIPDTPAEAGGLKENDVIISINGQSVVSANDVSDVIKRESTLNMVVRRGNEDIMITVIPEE

Binder | pKd
NIAESLESLV [PTPRZ1, P23471] | 4.41
LESTTVGTSV [KARS1, Q15046] | 3.95

What follows are binders tested against T7, HTRA3, P83110 (assay: holdup assay). Settings: plain residues with an end cap or a label only (N-terminal biotin on a linker: ado-ado).
T7 sequence (P83110 354-453, limits assumed, looked up): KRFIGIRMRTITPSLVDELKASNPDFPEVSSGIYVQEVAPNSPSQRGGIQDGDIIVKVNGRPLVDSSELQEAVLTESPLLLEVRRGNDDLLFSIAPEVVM
Design: key: below the threshold = too weak to quantify, mostly under pKd 3.1 to 4

Binder | pKd
NIAESLESLV [PTPRZ1, P23471] | below the threshold
LESTTVGTSV [KARS1, Q15046] | below the threshold

What follows are binders tested against IL16_1, Q14005 (assay: holdup assay). Settings: plain residues with an end cap or a label only (N-terminal biotin on a linker: ado-ado).
Design: key: below the threshold = too weak to quantify, mostly under pKd 3.1 to 4

Chain of IL16_1, Q14005 (Q14005 210-306): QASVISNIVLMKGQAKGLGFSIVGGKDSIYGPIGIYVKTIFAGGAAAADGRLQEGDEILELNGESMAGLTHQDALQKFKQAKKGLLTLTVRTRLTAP

Binder | pKd
NIAESLESLV [PTPRZ1, P23471] | 4.6
LESTTVGTSV [KARS1, Q15046] | 3.79

These binders were tested against IL16_4, Q14005 (assay: holdup assay). Settings: plain residues with an end cap or a label only (N-terminal biotin on a linker: ado-ado).
Design: key: below the threshold = too weak to quantify, mostly under pKd 3.1 to 4

Chain of IL16_4, Q14005 (Q14005 1229-1329): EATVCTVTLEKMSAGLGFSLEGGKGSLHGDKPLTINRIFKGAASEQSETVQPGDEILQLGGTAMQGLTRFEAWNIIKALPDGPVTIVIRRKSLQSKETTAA

Binder | pKd
NIAESLESLV [PTPRZ1, P23471] | below the threshold
LESTTVGTSV [KARS1, Q15046] | below the threshold

The binders below were run against Inadl_2, Q8NI35 (assay: holdup assay). Settings: plain residues with an end cap or a label only (N-terminal biotin on a linker: ado-ado).
Design: key: below the threshold = too weak to quantify, mostly under pKd 3.1 to 4

Chain of Inadl_2, Q8NI35 (Q8NI35 238-335): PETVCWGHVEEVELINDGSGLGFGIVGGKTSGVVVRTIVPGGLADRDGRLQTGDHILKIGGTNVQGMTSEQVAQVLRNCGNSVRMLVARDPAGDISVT

Binder | pKd
NIAESLESLV [PTPRZ1, P23471] | below the threshold
LESTTVGTSV [KARS1, Q15046] | below the threshold

The binders below were run against Inadl_6, Q8NI35 (assay: holdup assay). Settings: plain residues with an end cap or a label only (N-terminal biotin on a linker: ado-ado).
Design: key: below the threshold = too weak to quantify, mostly under pKd 3.1 to 4

Chain of Inadl_6, Q8NI35 (Q8NI35 1058-1167): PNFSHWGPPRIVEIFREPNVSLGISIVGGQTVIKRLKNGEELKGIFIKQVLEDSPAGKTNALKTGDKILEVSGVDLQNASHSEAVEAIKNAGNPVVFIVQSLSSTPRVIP

Binder | pKd
NIAESLESLV [PTPRZ1, P23471] | 4
LESTTVGTSV [KARS1, Q15046] | below the threshold

Each binder was assayed against Inadl_9, Q8NI35 (assay: holdup assay). Settings: plain residues with an end cap or a label only (N-terminal biotin on a linker: ado-ado).
Design: key: below the threshold = too weak to quantify, mostly under pKd 3.1 to 4

Chain of Inadl_9, Q8NI35 (Q8NI35 1530-1615): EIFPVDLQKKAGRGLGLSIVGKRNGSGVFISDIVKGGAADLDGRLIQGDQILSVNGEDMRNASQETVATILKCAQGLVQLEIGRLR

Binder | pKd
NIAESLESLV [PTPRZ1, P23471] | 3.76
LESTTVGTSV [KARS1, Q15046] | 3.67

What follows are binders tested against LAP2, Q96RT1 (assay: holdup assay). Settings: plain residues with an end cap or a label only (N-terminal biotin on a linker: ado-ado).
Design: key: below the threshold = too weak to quantify, mostly under pKd 3.1 to 4

Chain of LAP2, Q96RT1 (Q96RT1 other isoform, or with tags, fused parts or gaps): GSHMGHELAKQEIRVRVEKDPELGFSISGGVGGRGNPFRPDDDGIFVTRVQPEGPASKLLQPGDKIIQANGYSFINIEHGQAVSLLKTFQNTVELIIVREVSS

Binder | pKd
NIAESLESLV [PTPRZ1, P23471] | 4.25
LESTTVGTSV [KARS1, Q15046] | 3.92

Each binder was assayed against LNX1_2, Q8TBB1 (assay: holdup assay). Settings: plain residues with an end cap or a label only (N-terminal biotin on a linker: ado-ado).
Design: key: below the threshold = too weak to quantify, mostly under pKd 3.1 to 4

Chain of LNX1_2, Q8TBB1 (Q8TBB1 371-470): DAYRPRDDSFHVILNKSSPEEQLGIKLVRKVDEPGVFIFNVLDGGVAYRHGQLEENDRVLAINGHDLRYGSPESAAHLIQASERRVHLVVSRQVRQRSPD

Binder | pKd
NIAESLESLV [PTPRZ1, P23471] | below the threshold
LESTTVGTSV [KARS1, Q15046] | below the threshold

What follows are binders tested against MAGI2_4, Q86UL8 (assay: holdup assay). Settings: plain residues with an end cap or a label only (N-terminal biotin on a linker: ado-ado).
Design: key: below the threshold = too weak to quantify, mostly under pKd 3.1 to 4

Chain of MAGI2_4, Q86UL8 (Q86UL8 772-865): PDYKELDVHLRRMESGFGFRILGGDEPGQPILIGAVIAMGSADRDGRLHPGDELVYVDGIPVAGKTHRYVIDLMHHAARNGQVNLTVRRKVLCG

Binder | pKd
NIAESLESLV [PTPRZ1, P23471] | 4.45
LESTTVGTSV [KARS1, Q15046] | 4.31

Each binder was assayed against MAST1, Q9Y2H9 (assay: holdup assay). Settings: plain residues with an end cap or a label only (N-terminal biotin on a linker: ado-ado).
Design: key: below the threshold = too weak to quantify, mostly under pKd 3.1 to 4

Chain of MAST1, Q9Y2H9 (Q9Y2H9 962-1065): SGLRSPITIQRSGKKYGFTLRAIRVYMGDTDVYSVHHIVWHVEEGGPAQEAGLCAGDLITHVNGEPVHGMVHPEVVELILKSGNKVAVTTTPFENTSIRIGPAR

Binder | pKd
NIAESLESLV [PTPRZ1, P23471] | below the threshold
LESTTVGTSV [KARS1, Q15046] | 4.53

Each binder was assayed against T8, MPP6, Q9NZW5 (assay: holdup assay). Settings: plain residues with an end cap or a label only (N-terminal biotin on a linker: ado-ado).
T8 sequence (Q9NZW5 125-219, limits assumed, looked up): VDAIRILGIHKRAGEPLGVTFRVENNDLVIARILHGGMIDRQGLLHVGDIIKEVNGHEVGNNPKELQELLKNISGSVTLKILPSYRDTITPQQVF
Design: key: below the threshold = too weak to quantify, mostly under pKd 3.1 to 4

Binder | pKd
NIAESLESLV [PTPRZ1, P23471] | below the threshold
LESTTVGTSV [KARS1, Q15046] | below the threshold

The binders below were run against NHERF2_2, Q15599 (assay: holdup assay). Settings: plain residues with an end cap or a label only (N-terminal biotin on a linker: ado-ado).
Design: key: below the threshold = too weak to quantify, mostly under pKd 3.1 to 4

Chain of NHERF2_2, Q15599 (Q15599 142-238): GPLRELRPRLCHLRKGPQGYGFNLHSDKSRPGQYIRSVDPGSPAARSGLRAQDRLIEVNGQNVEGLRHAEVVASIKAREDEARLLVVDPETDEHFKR

Binder | pKd
NIAESLESLV [PTPRZ1, P23471] | below the threshold
LESTTVGTSV [KARS1, Q15046] | below the threshold

The binders below were run against T9, PARD3B_1, Q8TEW8 (assay: holdup assay). Settings: plain residues with an end cap or a label only (N-terminal biotin on a linker: ado-ado).
T9 sequence (Q8TEW8 196-299, limits assumed, looked up): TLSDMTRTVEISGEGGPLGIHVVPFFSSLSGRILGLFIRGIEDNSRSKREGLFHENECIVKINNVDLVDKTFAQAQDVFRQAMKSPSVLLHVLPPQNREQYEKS
Design: key: below the threshold = too weak to quantify, mostly under pKd 3.1 to 4

Binder | pKd
NIAESLESLV [PTPRZ1, P23471] | below the threshold
LESTTVGTSV [KARS1, Q15046] | below the threshold

Each binder was assayed against SCRIB_1, Q14160 (assay: holdup assay). Settings: plain residues with an end cap or a label only (N-terminal biotin on a linker: ado-ado).
Design: key: below the threshold = too weak to quantify, mostly under pKd 3.1 to 4

Chain of SCRIB_1, Q14160 (Q14160 718-814): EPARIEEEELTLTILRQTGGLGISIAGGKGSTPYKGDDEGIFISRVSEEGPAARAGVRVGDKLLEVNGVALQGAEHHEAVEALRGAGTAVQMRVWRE

Binder | pKd
NIAESLESLV [PTPRZ1, P23471] | 3.87
LESTTVGTSV [KARS1, Q15046] | 3.81

These binders were tested against T10, SNTA1, Q13424 (assay: holdup assay). Settings: plain residues with an end cap or a label only (N-terminal biotin on a linker: ado-ado).
T10 sequence (Q13424 82-180, limits assumed, looked up): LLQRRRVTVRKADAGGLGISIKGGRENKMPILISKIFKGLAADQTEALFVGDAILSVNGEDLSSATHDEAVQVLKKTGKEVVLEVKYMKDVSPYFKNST
Design: key: below the threshold = too weak to quantify, mostly under pKd 3.1 to 4

Binder | pKd
NIAESLESLV [PTPRZ1, P23471] | 4.51
LESTTVGTSV [KARS1, Q15046] | below the threshold

These binders were tested against T11, SNTG1, Q9NSN8 (assay: holdup assay). Settings: plain residues with an end cap or a label only (N-terminal biotin on a linker: ado-ado).
T11 sequence (Q9NSN8 52-150, limits assumed, looked up): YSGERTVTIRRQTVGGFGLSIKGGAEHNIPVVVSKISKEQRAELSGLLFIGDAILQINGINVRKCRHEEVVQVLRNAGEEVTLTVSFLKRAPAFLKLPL
Design: key: below the threshold = too weak to quantify, mostly under pKd 3.1 to 4

Binder | pKd
NIAESLESLV [PTPRZ1, P23471] | 4.94
LESTTVGTSV [KARS1, Q15046] | 3.7
